Measurements taken from article doi:10.1101/2024.04.06.588283.

Target: MBP-PrLD (C-terminal half of FCA containing prion-like domains) (Arabidopsis)
Experiment: SEC-MALS

MBP-PrLD (C-terminal half of FCA containing prion-like domains) (domain or fragment)
stoichiometry N: > 100 molecules
